In patent US20040161798A1 (University of Texas, published 2004):
No end group written: not given here.

Legend:
[1] = biological target: T1, His6Gal80 (UniProt P04387 1-435); experiment: protein retained on TentaGel beads with scrambled peptide, SDS-PAGE/Western blot
T1 construct: also called Gal80 protein; Gal 80 protein; not shown: N-terminal His6 tag from vector pProEX-1
T1 sequence (looked up): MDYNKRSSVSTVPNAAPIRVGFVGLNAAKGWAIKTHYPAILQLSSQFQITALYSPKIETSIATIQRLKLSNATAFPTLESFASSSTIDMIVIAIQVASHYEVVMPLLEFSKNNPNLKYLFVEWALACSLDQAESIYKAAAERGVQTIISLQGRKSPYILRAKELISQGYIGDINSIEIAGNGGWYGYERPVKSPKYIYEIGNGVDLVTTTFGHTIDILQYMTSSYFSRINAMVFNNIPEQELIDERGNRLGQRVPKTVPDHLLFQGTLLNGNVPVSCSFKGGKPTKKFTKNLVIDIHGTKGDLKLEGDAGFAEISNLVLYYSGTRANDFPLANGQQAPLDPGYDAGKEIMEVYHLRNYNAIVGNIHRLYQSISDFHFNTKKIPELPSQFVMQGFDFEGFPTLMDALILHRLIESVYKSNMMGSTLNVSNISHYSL

[2] = biological target: T2, ubiquitin (Homo sapiens (Human), UniProt P0CG47 1-76, The screen used fluorescently labelled ubiquitin. The ITC and pull-down assays used unlabelled (native) ubiquitin.); experiment: isothermal titration calorimetry in solution, against NH2-RWDRYYF
T2 construct: Unlabeled in ITC and in the pull-down assays; also called native ubiquitin

[3] = biological target: T2, ubiquitin; experiment: isothermal titration calorimetry in solution
[4] = biological target: T3, GST-KIX (mouse, UniProt P45481 378-817); experiment: dilution assay on TentaGel beads, Western blot
T3 construct: range 378-817; also called GSTCBP(378-817); GST fusion of CBP(378-817)

[5] = biological target: T4, His6-KIX (mouse, UniProt P45481 378-817); experiment: fluorescence polarization titration in solution; paragraph 167 gives this value for His6-KIX and GST-KIX
T4 construct: range 378-817; Monomer; also called CBP(378-817) from pRSET-CBP(378-817); not shown: N-terminal His6 tag of vector pRSET-A
Text: (§1) Determination of solution binding constants.
(§2) Complex half life of immobilized peptides and dimeric proteins. Peptide libraries are rich sources of protein-binding molecules and there exist many straightforward methods to screen such libraries. […] To test the surface-mediated avidity concept, a collection of peptides known to bind different proteins were assembled, some homodimers and some monomers.

[6] = biological target: T3, GST-KIX; experiment: as above
Text: as §1, §2

[7] = biological target: T4, His6-KIX; experiment: fluorescence polarization after adding excess unlabeled peptide
Text: (§3) Fluorescence anisotropy measurements were taken every 30 seconds.
as §2

[8] = biological target: T3, GST-KIX; experiment: as above
Text: as §3, §2

[9] = biological target: T3, GST-KIX; experiment: protein retained on TentaGel beads with scrambled peptide, SDS-PAGE/Western blot
[10] = biological target: maltose-binding protein (UniProt P0AEX9 27-392 = MBP); experiment: fluorescence polarization titration in solution
[11] = biological target: T5, GST-Mdm2 (human, UniProt Q00987 1-188); experiment: protein retained on TentaGel beads with scrambled peptide, SDS-PAGE/Western blot
T5 construct: range 1-188; also called GST fused human Mdm2
T5 sequence (Q00987 1-188): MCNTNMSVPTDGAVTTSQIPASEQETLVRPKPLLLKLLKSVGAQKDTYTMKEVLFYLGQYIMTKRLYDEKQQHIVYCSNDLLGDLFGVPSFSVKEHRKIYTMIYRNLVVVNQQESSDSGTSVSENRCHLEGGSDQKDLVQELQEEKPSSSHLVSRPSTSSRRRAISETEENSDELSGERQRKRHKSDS

T3 sequence (P45481 378-817): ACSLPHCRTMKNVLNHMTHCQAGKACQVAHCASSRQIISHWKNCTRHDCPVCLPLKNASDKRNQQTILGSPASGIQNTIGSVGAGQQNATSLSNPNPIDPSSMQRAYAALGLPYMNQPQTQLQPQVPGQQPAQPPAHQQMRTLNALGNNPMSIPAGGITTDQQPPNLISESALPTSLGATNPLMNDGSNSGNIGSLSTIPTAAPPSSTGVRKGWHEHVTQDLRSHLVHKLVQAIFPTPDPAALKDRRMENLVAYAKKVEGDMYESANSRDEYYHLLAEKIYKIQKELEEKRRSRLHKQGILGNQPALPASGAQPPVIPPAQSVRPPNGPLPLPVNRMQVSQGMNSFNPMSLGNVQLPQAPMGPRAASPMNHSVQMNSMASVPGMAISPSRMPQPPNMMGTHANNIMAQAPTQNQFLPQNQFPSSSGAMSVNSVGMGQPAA
T4 sequence (P45481 378-817): as above

B1: Gal80bpscram (peptide)
peptide: DLQRDTNKGFHEMFDWDYQN
modifications: attached to TentaGel resin in the bead assays
notes: Scrambled control of Gal80bp; also called Ga180bpscram; scrambled version of Gal80 bp
B1: no binding (tested: 300 nM) [1].

For H-WGLRALESRWDRYYF (Hit of the library NH2-X7-S-RWDRYYF) [NH2-WGLRALESRWDRYYF], the “fold better in solution than the lead peptide” value [2] was about 3 fold and the Kd [3] was 12 µM.

B2: KIXbp1 (peptide)
peptide: SVPGSVSWFEFWSAVDAVET
modifications: not fully specified (N-terminus); also: N-terminal carboxyfluorescein only in solution titrations, attached to TentaGel resin in bead assays
notes: Phage display 20-mer
For B2, the “half-life of the immobilized complex” value [4] was over 2 h, the Kd [5] was 8 µM and the Kd [6] was 8 µM. For the same binder, the “half-life of the complex in solution” value [7] was under 10 s and the “half-life of the complex in solution” value [8] was under 10 s.

FSASFTEVVDAGWVSPWSVE (attached to TentaGel resin in the bead assays, Scrambled control of KIXbp1) [KIXbp1scram]: no binding (tested: 300 nM) [9].

B3: Mdm2bp (peptide)
peptide: PLSQETFSDLWKLLPENNV
modifications: not fully specified (N-terminus, C-terminus); also: N-terminal carboxyfluorescein only in solution titrations, attached to TentaGel resin in bead assays
notes: also called p53 derived peptide; p53-derived peptide
B3: no binding [10].

NVKWLDPNQELPSFLTSLE (attached to TentaGel resin in the bead assays, Scrambled control of Mdm2bp) [Mdm2bpscram]: no binding (tested: 300 nM) [11].

B4: NH2-RWDRYYF (peptide)
peptide: H-RWDRYYF
notes: Hit of a seven residue peptide library; also called ubiquitin lead peptide; lead peptide
With B4 the Kd [3] was 33 µM.
